Test results taken from a protein production outcome set (Wang et al. 2014).

assay: label from the status in PepcDB records
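Also: failed if final PepcDB status was selected cloned or expressed and not failed if soluble or beyond.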

**Q.** For “MQLLKELCSIHAPSGNEEPLKDFILEYIRSNAGSWSYQPVIYADNDLQDCIVLVFGNPRTAVFAHMDSIGFTVSYNNHLHPIGSPSAKEGYRLVGKDSNGDIEGVLKIVDEEWMLETDRLIDRGTEVTFKPDFREEGDFILTPYLDDRLGVWTALELAKTLEHGIIAFTCWEEHGGGSVAYLARWIYETFHVKQSLICDITWVTEGVEAGKGVAISMRDRMIPRKKYVNRIIELARQTDIPFQLEVEGAGASDGRELQLSPYPWDWCFIGAPEKDAHTPNECVHKKDIESMVGLYKYLMEKL”, which protein production is on record?
**A.** The protein production was “not failed”.

**Q.** For “MQLLPGPVRRFAAWCAVILLASGVVYVAIRLCVEFRTAVTPALLALLGTALLRPLHARLVKAHVQRSLAAGLTCAAVLAVVGGAVYIVVSALVETGDQIVTSLRDAAQGIADHFGAAGTSLDDLASNARELLGKFGGTAASGVVTGISVVGEMIAMAVLALLLVFFFLRDSDRAVTTVRALAPPGGADTVEAVARRAFGAVEGFMRGTTLIALIDAFCITVGLLVLRVPGAVGLGALVFVGAYIPYLGAFISGAVAVLVALADRGFVIALWALGVVLAVQVLEGHVLQPMIQSRTVQMHPAVVLLALTAGASVAGILGMLLAVPLTAAAFGVVHELQARYGVSTAASGPDAGPAPSTGAADS”, which protein production is on record?
**A.** Its protein production is “failed”.

**Q.** With “MQLMRFDKPIGTLLLLHPTLWALFAAAGGIPSSSILIIFILGVIVMRAAGCVINDYADRHIDGKVKRTSQRPLATGRVTTVEAKVLFFVLLIIAFLLDLSLNQYAFLLSFVAVALAVIYPFMKRFTHLPQVVLGMAFGWAIPMAYGAVIEDLPLTCWLLFLANILWTVAYDTQYAMVDRDDDLRIGVKSTAILFAQYDNKIIALLQFLSLILFILFGWLSEYHIGYFIVLALTSTLFIYQCWLTKQRVREQCFKAFLNNNYFGFGIFIAILVGIYGF” as the sequence, how does the protein production read?
**A.** The protein production was “failed”.

**Q.** For “MQLWIYGVLIRLVTPAVFVWLWLRGGKDSRYRQNWSERLALGSVDKKQHGCLVIHSVSVGETLAAKRLIEQLLRQEPGQKILITCMTPTARELIQQHFADTVSCRYWPIDSPGAAKRFVRKFKPKAVWVMETELWPQMLNQFSKANIPVALLNARLSARSAAGYRRFHWLMKKVWKQLTLVSVQNKETARRMKVLGVPDSVLFVDGNLKYDIELSVTDIEKALLWRQSCASRHVWLASSSHPGEHELLLEAHKLIQQDLSNSCLIIAPRHPEQFEVVAKMIRESGLKLARRSESNAIPEDCDVFLADSMGEMMLWGQLASASFVGGSIIERGGHNPLEVIAAGSNVMSGRHVFNFPQVYGELAKAGAVQWVNNAGEIKQAVELMQQTAVMKAQHEAAKSVLQTHQGATLRVLKRALEYTLTGSGMIKTEQSPQGLIRYDSDIFETIEDKHFTAQYWQQQKSIAGNSTGRATVWFIQQGDLGLLLRHYYRGGLVGKINKDRFLREPAEKSRAIHEFDLLLKLREIGLPVPRPVAARMEKTAVFSYKADILVEVIPGAVDVFRLLREKKLSAELWQKLGSVIKELHDTGVYHSDLNCHNLMLDDKDKAWIVDFDKCDFRENGDWKEANIQRLLRSLRKEKEKNETFYWKESRDWPELLTGYRR”, which protein production is on record?
**A.** Its protein production is “failed”.

**Q.** For “MQNDFDRVFVLTGGPGSGKTTLIAALRRAGFATSVVAGRGIVRDQSSIGGTALPWSDRTLFAELMLSWEMRSYQNAVEQKGPVFFDRGVPETLGYLRLSGLPVADHVSTAAKRFRYNPRVFIAPPWPDIFAQDEERKQTPDEAKCTYHALAEIYTELGYELVPLPLAPVETRLRFVLADAGLEHHHHHH”, which protein production is on record?
**A.** The protein production was “failed”.

**Q.** With “MQNLDRDVVIVGAGPSGLTAARELKKAGLSVAVLEARDRVGGRTWTDTIDGAMLEIGGQWVSPDQTVLMELLDELGLKMYSRYRDGESVYIGADGKRTQYTGDTFPVNETTKAEMDKLVAILDELAAEIGPTEPWAHPKARELDTISFHHWLRQNSNDEEACNNIGLFIAGGMLTKPAHAFSALQAVLMAASAGSFSHLTDEDFILDKRVIGGMQQVSLLQAAELGDDVVLNSPVRTIKWDENGVSVVSERATVNARFVIMAVPPNLYSRVSFDPPLPRRQHQMHQHQSLGLVIKVHAVYDTPFWREEGLSGTGFSAGALVQEVYDNTNHGDSRGTLVGFVSDEKADAVFELSAEDRKKAILESIAGFLGDKALTPEVYYESDWGSEEWTRGAYASSYDLGGLHRYGKDQHANVGPIYWSSSDLAAEGYQHVDGAVRMGQATAARIVEANKLASVPVA” as the sequence, how does the protein production read?
**A.** Its protein production is “not failed”.

**Q.** With “MQNTPVILFDLDGTLIDSTEAVYEGFCVAFEKNGGAIPSQGKVVELIGHTLEDMFLRLGVPEVNITQHVLDYKAHYRIISKPKTNLLPKAREAILEASKFATLGVVTTKTGRFSRELLEYFEVLHFFKSIVGREDVTNAKPHPEPIFKALSEIGIKEVSAWMVGDTPLDLLAAQEAGIKSVAVLSGYAEEEMLRKYTLNVSKD” as the sequence, how does the protein production read?
**A.** Its protein production is “failed”.

**Q.** For “MQPILWILTLGISLNGVTSVTFLKQFNTSFLDFEIVGVPIIFALTIPLFGSFSSRLEFSNSTIYVVHLLSNRKIIYYFMGTDVIFYAIITFVNVLTVAGLSFILTSEGVNVIGLLAVLPLMLLGSLTSYSLGIIINSLFRNLSSPTSYLFSLIQVILILFSGVYYPLSYLPEYLRIIAFISPYSHLIALIRYILLGYNASDLNALWFYTLPYQVQVVLSISYVIVLGVILFILAGKRLVKGQGMVLL”, which protein production is on record?
**A.** The protein production was “failed”.

**Q.** With “MQPVEASDYWELARLSQPAVSPTGDRVAYVRTTAERDGDTGQETASVHVAPVGGGGSRRFTAADGTDAEPAWSPTGDRLAFVSTRGDAGGGRPQLWVVPVDGGEATRITDVIGGVSNIAWGPDGDRVAFLQAVRPAERAEELDREHDGEYERDTPDPRVIDRQMYRGHTSYRDGARRHVYVADLAAGRVDRVTAGVAECGGPAWGDDGTLYYPIRRGLDADDRLEWAIEAATPADSADSTVVTTVEGMGPTLAVHGSRVAYTTTPADDPTLTQTAVEVFDRDTGATDRLTDGVDRTVAERTAGHAPEWGPDGEHLYVCTPDEGGYVLRRVAADTGDDRVVLAGDRHVHAFSVSADAVAVVQSEWDHPGEVVAATPMGGEEVTLTRANRDYLDERAVSKPESVWIDGPAGDIQGWVLTPPEFDPEETYPLVVNVHGGPHLMWSAAGTMWHEFQTLAARGYVVFWCNPRGSTGYGQEWLRAVERDWGAVTLADVMAGVAAVTDRDYVDADNAFITGGSFGGFMTGWAVGHTDAFAGAVAQRGVYDLTGFYGTTDAYALVEGEFDTDPVRDNAFLWAQSPAAHTDAVDTPTLLVHSEADYRTPANTAELFYRLLKKHGVDTRLVRYPGEGHDLSRSGDPGHVVDRIERIAAWFDGYSDHHEAAPVLETDRPGAAADE” as the sequence, how does the protein production read?
**A.** Its protein production is “failed”.

**Q.** With “MQRERTAESSLRVISKEKNSITVEMINYDNTLLRTLVEEILKDDQVDEARYYIKHPVIDNPQIYVRVKSGKPQSAIKRAVRKLSKLYEDLGTQFQKEFQRYESDHMIKAVE” as the sequence, how does the protein production read?
**A.** Its protein production is “not failed”.

**Q.** For “MQRFVCEQNIAHFQKLLETAEDEKLRRTLLGLLSSAKRELALLHSRLSGADLSPLAYRNRGGDLNSVLAQIRAGFDASDHPYMLIDAGPGLKIIDINDAYARATFTAREAIVGKPLFEIFPDNPAIDTADGVSNVYNSLRAVVETGEPHALAVQRYDMRNTEGVFVERYWQSINTPVRDAGGKLICLLHNVEDVTAEVLAN”, which protein production is on record?
**A.** The protein production was “failed”.

**Q.** For “MQSAKEKISDMASTAKEKLNIGGAKAQGHAEKTMARTKKEKKLAQEREKSKEAQAKADLHQSKAEHAADAQVHGHHLPGHSTYPTRATGANYPPGQI”, which protein production is on record?
**A.** The protein production was “failed”.

**Q.** For “MQSFWSKLKIESSKLLPSYFASVMAIGIFSIAFFLYNYNVLSYLLSYLSNVIYFALWVITVIRWVYYPRSYLNELKDLGRSPGFLSKVIATNTIGSEYMLIFKDYSLAYAFFMFGLILWIFYQYAVLSAISFNINDRNIEYVNGIWELIPASTQSVVDLGSILSPFHTYLYTLSLILFFIGVAQYIVMTSLILGRIVLKGLKPKDASGSYWIITGAAALSALAGIDLLIYLNEVNLQSAYIGDLRTIVLTFIILLWSTGTWWIPWLIYMGIWKHVINRVPLLVYDPQFWGAVFPMGMYATSSFLLIRYVNLNIPMLIPDIFILVGSVALVYQTSLMLYNVVKKLVD”, which protein production is on record?
**A.** Its protein production is “failed”.

**Q.** Which protein production does the source give for “MQSSQVKSAMRALEIMEFFRAVKQPRSMSEISIALGYPQSSTTVLLKTLISLGYLNFNRKERLYFPTLKVSALGDWIANSLFSSRDILEVLQDIHMETGETVAIATKNDIYLQYIQIIESVHALRFHVDENAIRPLTMSSNGWMLMSTMNDKAIDNTVRRANTITQKDGIRFEVDDMMARIRQVREQGYASAEHIPFVGGGTICVLLPMTIQGQPVTMGLGGALDRIKQNYDRYLELLLNGVQQLKKSDSFHQPIELAH” here?
**A.** The protein production was “failed”.

**Q.** Which protein production does the source give for “MQSVEDKTFCLQTLSANPLAASATGLLPLAEVVIRGIDLPYAKLLVKSADRAIEKIPALKEQFKECQDSFLRIVMSLKSAASELKVSPDTANYDAMICFDETKRVKEVIGKNEDVTSKSLIEMTLRMEKLIFLALGATEVVGG” here?
**A.** The protein production was “failed”.

**Q.** For “MQTEIITQLVLIFPEILIALGGITLLLFGVYSKASSSLTVTGLAIALFVATIVIIIIFPKSGLFQTNALIIDSFGRYMKILTLIGALFALIMSVNFTSTQKFDIFEFPVLVLLATLGMMLMISAGNMLSLYMGLELQSLALYVLAAINRNNIKSSEAGIKYFALGALSSGLLLYGISLVYGFTGQIGFREIAVALKGENLPLGVIFGIVFILAGLAFKISAVPFHMWTPDVYEGAPTPITAFFAGAPKVAAMALIVRIIVMTFIPLENTDGSMPAWQQILVFMAIASMILGAFAAIGQSNIKRLMAYSSISHMGYALVGLASGDMLGIKSVILYMTIYLSMTIGSFAFILGMRSSDGNVEDIYDLSGLVKTNPFMAITMTIQLFSLASIPPMAGFFGKWYTFSAAVHAGLTPLAIVGMIASVVGAFYYLRLIKIMWFDDAKAHFIVLSNEFRFCLSFSAFFILSYTLFGIWFADLAERAATALF”, which protein production is on record?
**A.** The protein production was “failed”.

**Q.** For “MQTKVINFNDKFSLFNQHWSPRVIAEMNDYQFKLVKVEGEFVWHEHADTDEVFIVMEGTLQIAFRDQNITLQAGEMYVIPKGVEHKPMAKEECKIMIIEPR”, which protein production is on record?
**A.** The protein production was “not failed”.

**Q.** For “MQTLNVLDNRFSPFNTYSTLSTDALVAETFTNTIFDKRQILALMTQLQTTLDIDELLSIFAVEATRYVDFSGLYFKSQNLNTVLFGSRKAKKEQCFELKIEDNFIGTLSYGINSPISLTNFKVLEQLHLCLLHPIKNAIAYHTAMQLAMQDGLTGLGNRRYFDEQLKRSMHNANRHHSLVGLVLGDLNKFKAINDTHGHIAGDTVLQEFANVLRLCTRDSDSLFRFGGDEFAIIVENANDTALAIIENRINLALASNVQLNKYQLGCSIGSTFMNRADNELSFFERADEILYRRKMQVSSHLSVV”, which protein production is on record?
**A.** The protein production was “failed”.

**Q.** Which protein production does the source give for “MQTSNITNHERNDSSWMSTVKSTTEVSWNKLSFCDILLKIITFGIYSPHETLAEKHSEKKLMDSFSPSLSQDKMDGEFAHANIDGISIRLCLNKGICSVFYLDGDKIQSTQLSSKEYNNLLSSLPPKQFNLGKVHTITAPVSGNFKTHKPAPEVIETAINCCTSIIPNDDYFHVKDTDFNSVWHDIYRDIRASDSNSTKIYFNNIEIPLKLIADLINELGINEFIDSKKELQMLSYNQVNKIINSNFPQQDLCFQTEKLLFTSLFQDPAFISALTSAFWQSLHITSSSVEHIYAQIMSENIENRLNFMPEQRVINNCGHIIKINAVVPKNDTAISASGGRAYEVSSSILPSHITCNGVGINKIETSYLVHAGTLPSSEGLRNAIPPESRQVSFAIISPDV” here?
**A.** The protein production was “not failed”.

**Q.** For “MQTTEIDLRLTEVSQQLTMVLVPGLRDSDDEHWQSHWERRFPHWQRIRQREWYQADLDRWVLAIRRELSVCTQPVILIGHSFGALAACHVVQQGQEGIAGVMLVAPAEPMRFEIDDRIQASPLSVPTLTFASHNDPLMSFTRAQYWAQAWDSELVDVGEAGHINAEAGFGPWEYGLKRLAEFSEILIPNR”, which protein production is on record?
**A.** Its protein production is “not failed”.

**Q.** With “MQTVPSSDGTPIAFERSGSGPPVVLVGGALSTRAGGAPLAERLAPHFTVICYDRRGRGDSGDTPPYAVEREIEDLAAIIDAAGGAAFVFGMSSGAGLSLLAAASGLPITRLAVFEPPYAVDDSRPPVPPDYQTRLDALLAEGRRGDAVTYFMTEGVGVPPDLVAQMQQAPMWPGMEAVAHTLPYDHAVMGDNTIPTARFASISIPTLVMDGGASPAWIRHTAQELADTIPNARYVTLENQTHTVAPDAIAPVLVEFFTR” as the sequence, how does the protein production read?
**A.** The protein production was “not failed”.
